Consider two molecules from US20060062793A1, “Modified antibodies to prostate-specific membrane antigen and uses thereof” (priority 2004, published 2006).

In one series the test system is LNCaP tumor xenografts. Briefly: Murine J591-DM1 immunoconjugate in BALB/c mice with LNCaP xenografts. Type of series: in vivo, mouse. Particulars: unconjugated, equimolar, intraperitoneal qday x 5 days. As to the method: Tumor xenografts of LNCaP cells were established in the right flank of BALB/c mice (5×10^6 cells injected subcutaneously). Animals were observed until tumors were visible (7-10 mm). Animals were then treated with PBS, unconjugated mAb J591, unconjugated DM1, both mAb J591 and DM1 but unconjugated, and J591-DM1 immunoconjugate (100, 200, 300, and 400 mcg/day intraperitoneal qday×5 days). The mAb J591 was modified to introduce dithiopyridyl groups and then conjugated to DM1 via a hindered disulfide bond, as described above. Unconjugated mAb J591 and DM1 were given in equimolar concentrations.
Tumor xenografts of both LNCaP cells (5×10^6 cells injected subcutaneously in the right flank) and PC3 cells (3×10^6 cells injected subcutaneously in the left flank) were established in BALB/c mice. Animals were observed until LNCaP tumors were visible (PC3 tumors were present but much smaller). Animals treated with J591-DM1 immunoconjugate: 300 mcg/day intraperitoneal qday×5 days
Tumor xenografts of LNCaP cells were established subcutaneously in the right flank of BALB/c mice. […]
All animals were photographed pre- and post-treatment and tagged for identification. Tumor volume was determined (length×width×depth) and closely followed. […]

For series [1], the system named is androgen-independent PSMA-positive 22RV1 xenograft. Briefly: deJ591-DM1 efficacy in castrate or intact scid mice bearing 22RV1 xenograft. The class given is in vivo, mouse. As to the method:
Prostate tumors can be broadly classified as either androgen-dependent or androgen-independent. […] The 22RV1 cell line was originally developed as androgen-independent and can be grown as a xenograft in C.B-17 scid mice that have been left either intact or castrated. […] This was approximately twice the time required for the tumors of intact mice to reach 1000 mm^3 (9.3 days). C.B-17 scid mice bearing CWR22 xenografts approximately 200 mm^3 in size received IV injections (200 μL constant volume) of the test articles according to the dosage and schedule shown in the Table 24.

The test system of the next series is CD-1 mice. Briefly: Single IV administration toxicity of deJ591-DM1 and DM1 in CD-1 mice. Type of series: in vivo, mouse.
For series [2], the system named is PSMA-positive human LNCaP tumors. Put plainly: Biodistribution of 111In labeled MAbs in nude mice bearing LNCaP tumors. The class given is in vivo, mouse. As to the method: Prior to use, the cells were trypsinized, counted and suspended in Matrigel (Collaborative Biomedical Products, Bedford, Mass.). Nu/Nu Balb C mice 8-10 weeks of age were inoculated, in the right and left flanks, with a suspension of 5×10^6 LNCaP cells in Matrigel (BD Biosciences, Bedford Mass.). After a period of 14-18 days, tumors (100-300 mg) had developed. The PSMA-negative DU145 and PC3 cells were implanted in nude mice in an identical manner.
The PSMA-positive and PSMA-negative tumor bearing mice were injected, via the tail vein, with 80 KBq of the iodinated MAb (400 MBq/mg) in 200 μL of PBS (pH 7.4, 0.2% BSA). Groups of animals (3-8/group) were sacrificed after 2, 4 or 6 days. The major organs and tumors were recovered. The tissue samples were weighed and counted, with appropriate standards in an automatic NaI(Tl) counter. These measured relative activity data (cpm) were background corrected and expressed as a percentage of the injected dose per gram (% ID/g). […] J415, J591 and 7E11 were labeled with ^111In (100 MBq/mg). 80 KBq of the ^111In labeled MAbs were injected in groups of animals. The % ID/g in various organs and tumor tissues was determined at 2-6 days post injection in a similar way as described for ^131I labeled MAbs.

Series [3] deals with recurrent, progressing prostate cancer. Put plainly: Phase I trial of four weekly doses of 111In-DOTA-deJ591. More on the design: species or system human. Particulars: human, in vivo. Here is the method:
Patients with recurrent, progressing prostate cancer received four weekly doses of ^111In-DOTA-deJ591. Doses were escalated in cohorts of three patients and ranged from 62.5-500 mg/m2 (total). […] After the first dose, patients were imaged on the day of injection (day 0) and days 1, 2, 4 and 7.
Serum PK, immune reaction and toxicity were evaluated after each dose for a minimum of 12 weeks.

Series [4] deals with hormone-refractory prostate cancer metastases. Put plainly: Nuclear imaging with 111In or 177Lu labeled deJ591 versus standard imaging. Type of series: in vivo, human. As to the method:
The antibody scans were compared to standard imaging studies (bone, CT or MR scans) obtained on each patient to assess the underlying sensitivity, specificity, and accuracy of deJ591 targeting to metastatic sites. Bony and soft tissue metastases were evaluated independently.

Series [5] concerns vascular endothelium of solid tumors. Briefly: Phase I trial of 111In-DOTA-deJ591 in refractory non-prostate solid tumors. The class given is in vivo, human. An excerpt: Eligible patients were those with refractory solid tumor malignancies whose tumor types are known to express PSMA on the neovasculature.
Patients the participated in the study included eight renal cell cancer patients, four bladder cancer patients, two colon cancer patients, and one pancreas cancer patient.

A short description of series [6]: Pharmacokinetics of deJ591 and deJ591-DM1 in cynomolgus monkeys. Type of series: in vivo. The following applies: Monkey, male & female.
The test system of the next series is prostate cancer. The following applies: after each radiolabeled dose over five months.

`COc1cc2cc(c1Cl)N(C)C(=O)C[C@H](OC(=O)[C@H](C)N(C)C(=O)CCS)[C@]1(C)O[C@H]1[C@H](C)[C@@H]1C[C@@](O)(NC(=O)O1)[C@H](OC)/C=C/C=C(\C)C2` [DM1, reference compound]: in the series on LNCaP tumor xenografts, the mortality result was “died within 48 hours of treatment completion”. For the same molecule, in [1] (Castrate mice, 240 μg/kg DM1-equivalents, q3dX5), the “Relative TGD” value is listed as 1.4. Besides, the “change in growth delay for castrate mice relative to androgen-intact mice” value in series [1] (q3dx5) is given as 1.4 fold. In addition, in the series with CD-1 mice, the “toxicity compared with deJ591-DM1 at equimolar dosages” value was “tended to be less toxic than deJ591-DM1 at lower dosages”.
As to deJ591, the “tumor uptake over time” value in [2] was “gradually increased with time and is quite similar to that of 7E11”. The plasma half-life entry in series [3] is recorded as “varied with dose”. The “negative mAb scans in patients without documented soft tissue metastases” value in series [4] (fifteen patients) worked out at 100%. In addition, the “specificity, bone” value in [4] (seven patients with negative bone scans) is listed as 100%. Further, the Liver uptake in series [5] (5 mg) is 28%±14%; in [5] (10 mg) it was 17%±7%; in series [5] (20 mg) it was 13%±5%. Further, the “Plasma clearance (T1/2)” value was 21 ± 11 h in [5] (5 mg), 24 ± 6 h in series [5] (10 mg) and 37 ± 8 h in [5] (20 mg). In addition, the “Total deJ591 AUC” value was found to be 25200 µg·h/mL in [6] (6 mg/kg (72 mg/m^2), study KLA W-171) and 49400 µg·h/mL in series [6] (10 mg/kg (120 mg/m^2), study CTBR 57355). Also, the “tumor localization to known tumor sites” value in the series on prostate cancer was “excellent”.
